By IC50 is commonly meant the concentration that gives 50% inhibition.

For 20 molecules, IC50 results are on record in US9012420B2, “Aptamer for chymase, and use thereof” (Ribomic Inc., priority 2009, dated 2015).

Data set [1] deals with T1, chymase (Homo sapiens, UniProt P23946 P23946:22-247).
T1 sequence: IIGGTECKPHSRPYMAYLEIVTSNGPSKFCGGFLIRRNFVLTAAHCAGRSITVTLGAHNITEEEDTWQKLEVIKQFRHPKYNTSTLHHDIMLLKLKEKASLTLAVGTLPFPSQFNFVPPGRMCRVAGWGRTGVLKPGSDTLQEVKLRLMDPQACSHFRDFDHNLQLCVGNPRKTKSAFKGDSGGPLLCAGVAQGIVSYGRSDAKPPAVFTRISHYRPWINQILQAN
The data set can be described thus: inhibition; angiotensin I; recombinant 0.394. The settings on record: tags: human skin mast cell, Calbiochem. On the procedure:
(§1) The total volume of solution for an enzyme reaction in the assay was set to 50 μL, and the reaction was performed in solution C buffer. First, 0.3-0.75 ng of chymase (recombinant, (manufactured by SIGMA) or native (manufactured by Calbiochem)) was diluted with solution C to give 5 μL thereof. Here, the recombinant is chymase expressed by yeast, and the native is chymase purified from human skin mast cell. The nucleic acid was serially diluted with solution C at a concentration of 0.0027-2 μM to give 25 μL thereof. The chymase solution (5 μL) and the nucleic acid solution (25 μL) were mixed, and the mixture was incubated at 37° C. for 5 min. […] The whole mixture was centrifuged at 4° C., 14000 rpm for 10 min, and the supernatant (30 μL) was used for the next fluorescence induction reaction.
(§2) The above-mentioned supernatant (30 μL) was added to a 96 well plate (black, manufactured by Costar), a solution (15 μL) of 2% o-phthalaldehyde (manufactured by SIGMA) in methanol and 0.3M NaOH solution (170 μL) were added to each well, and the mixture was incubated at room temperature for 10 min. […] The plate was set on a microplate reader SpectraMax190 (manufactured by Molecular device) and the fluorescence intensity was measured at an excitation wavelength of 355 nm and a fluorescence wavelength of 460 nm.

The target of data set [2] is T1, chymase. The data set can be described thus: inhibition; Suc-AAPF-MCA, 37 C, solution C. The settings on record: tags: recombinant, expressed in yeast, SIGMA. Here is the method:
Here, Suc is a protecting succinyl group, and MCA is a 4-methylcoumaryl-7-amide group; upon cleavage of the C-terminal side of phenylalanine, AMC (7-amino-4-methyl-coumarine) is released. By detecting the fluorescence of this AMC, the enzyme activity of chymase can be determined. The assay was performed using a 96-well plate (F16 Black Maxisorp Fluoronunc, manufactured by Nunc), with a reaction mixture volume of 100 μL, in solution C as a buffer solution. First, each nucleic acid was serially diluted to 0.0027-2 μM concentrations in solution C to obtain 50 μL solutions. After 10 μL of the 1 mM substrate prepared in solution C was added thereto, the plate was set to the microplate reader SpectraMax190 (manufactured by Molecular Devices Corporation), and incubated at 37° C. for 5 minutes. Separately, 0.05 μg (or 0.005 μg) of chymase (recombinant, manufactured by SIGMA) was diluted in solution C to obtain a 40 μL chymase solution, and incubated at 37° C. for 5 minutes. The chymase solution was added to the mixture of the nucleic acid and substrate to initiate an enzyme reaction. The final chymase concentration in the reaction mixture was 16.7 nM (or 1.67 nM), the final substrate concentration being 100 μM. The plate containing the reaction mixture was set to the microplate reader SpectraMax190 (manufactured by Molecular Devices Corporation), and examined for time-dependent changes in the fluorescence intensity at 37° C. for 5 minutes (or 30 minutes) (excitation wavelength 380 nm, detection wavelength 460 nm). A linear approximation of the increase in the fluorescence of the AMC released from the substrate by chymase activity was generated, and its slope was taken as the initial velocity […]. For control, samples were treated and analyzed in the same manner in two cases: use of a 30N or 40N (a nucleotide of 30 or 40 consecutive bases represented by N; N is A, G, C or T) nucleic acid pool (negative control), and use of chymostatin, a known chymotrypsin-like serine protease inhibitor (positive control). Taking the initial reaction velocity without the nucleic acid and inhibitor (V_0) as a 100% enzyme activity, the inhibitory rate of each test substance was calculated using the following equation: […]
The chymase inhibitory activity was measured in the same manner as in Example 3.

For data set [3], the target named is T1, chymase. The data set can be described thus: inhibition; angiotensin I; recombinant 0.158. The following applies: tags: human skin mast cell, Calbiochem. On the procedure: as §1, §2
Data set [4] deals with T1, chymase. In words: inhibition; angiotensin I; recombinant 0.043. The settings on record: tags: human skin mast cell, Calbiochem; label: 5' biotin. On the procedure: as §1, §2
The target in data set [5] is T1, chymase. In words: inhibition; angiotensin I; recombinant 0.153. The following applies: tags: human skin mast cell, Calbiochem. Here is the method: as §1, §2
In data set [6] the target is T1, chymase. In words: inhibition; angiotensin I; recombinant 0.328. The settings on record: tags: human skin mast cell, Calbiochem. Here is the method: as §1, §2
The target of data set [7] is T1, chymase. The data set can be described thus: inhibition; angiotensin I; recombinant 0.370. The settings on record: tags: human skin mast cell, Calbiochem. On the procedure:
as §1, §2

The target in data set [8] is T1, chymase. In words: inhibition; angiotensin I; recombinant 0.161. The settings on record: tags: human skin mast cell, Calbiochem. On the procedure: as §1, §2
In data set [9] the target is T1, chymase. The data set can be described thus: inhibition; angiotensin I; recombinant 0.426. The settings on record: tags: human skin mast cell, Calbiochem; label: 5' biotin.
For data set [10], the target named is T1, chymase. In words: inhibition; angiotensin I; recombinant 0.377. The settings on record: tags: human skin mast cell, Calbiochem. Here is the method: as §1, §2
In data set [11] the target is T1, chymase. In words: inhibition; angiotensin I; recombinant 0.239. The following applies: tags: human skin mast cell, Calbiochem. On the procedure: as §1, §2
For data set [12], the target named is T1, chymase. In words: inhibition; angiotensin I; recombinant 0.687. The following applies: tags: human skin mast cell, Calbiochem. On the procedure: as §1, §2
The target in data set [13] is T1, chymase. The data set can be described thus: inhibition; angiotensin I; recombinant 0.125. The following applies: tags: human skin mast cell, Calbiochem. On the procedure: as §1, §2
Data set [14] has as its target T1, chymase. The data set can be described thus: inhibition; angiotensin I; recombinant 0.414. The following applies: tags: human skin mast cell, Calbiochem. Here is the method: as §1, §2
In data set [15] the target is T1, chymase. In words: inhibition; angiotensin I; recombinant 0.039. The settings on record: tags: human skin mast cell, Calbiochem.
The target of data set [16] is T1, chymase. The data set can be described thus: inhibition; angiotensin I; recombinant 0.036. The following applies: tags: human skin mast cell, Calbiochem. Here is the method: as §1, §2
In data set [17] the target is T1, chymase. In words: inhibition; angiotensin I; recombinant 0.065. The settings on record: tags: human skin mast cell, Calbiochem. Here is the method:
as §1, §2

Data set [18] concerns the target T1, chymase. In words: inhibition; angiotensin I; recombinant 0.289. The settings on record: tags: human skin mast cell, Calbiochem. Here is the method: as §1, §2
Data set [19] has as its target T1, chymase. The data set can be described thus: inhibition; angiotensin I; recombinant 0.201. The following applies: tags: human skin mast cell, Calbiochem. Here is the method: as §1, §2
Data set [20] has as its target T1, chymase. In words: inhibition; angiotensin I; recombinant 0.419. The settings on record: tags: human skin mast cell, Calbiochem; label: 3' biotin.
For data set [21], the target named is T1, chymase. The data set can be described thus: inhibition; angiotensin I; recombinant 0.310. The following applies: tags: human skin mast cell, Calbiochem; label: 5' biotin.

Regarding GGGUUAGAUAGAGUUAAAAACCC (mixed, 2'-F U; 2'-OMe 1-3,7,8,10,13,16-20; DNA C21-C23; 5' and 3' idT) [56(48)], the IC50 with chymase [1] stood at 621 nM; with chymase [2], 36 nM.

B1: 72(7) (mixed)
mixed: GGGTTAGAUAGAGTUAAAAACCC
modifications: 2'-F U; 2'-OMe 1-3,7,10,13,16-20; DNA T4,T5,A8,T14,C21-C23; 5' idT; 3' PEG 40 kDa
Regarding B1, the results for the IC50 in the data set with chymase [3] and with chymase [2] were 312 nM and 55 nM, respectively.

Turning to GGGTTAGAUAGAGTUAAAAACCC (mixed, 2'-F U; 2'-OMe 1-3,7,10,13,16-20; DNA T4,T5,A8,T14,C21-C23; 5' and 3' idT) [72(8)], in the data set with chymase [4], the IC50 came out at 97 nM.

For GGGUUAGAUAGAGUUAAAAACCC (mixed, 2'-F U and C; 2'-OMe 1-3,7,10,13,16-20; DNA A8; 5' and 3' idT) [56(50)], the half-inhibitory concentration (IC50) with chymase [5] amounted to 325 nM; with chymase [2], 27 nM.

B2: 56(43) (ssRNA)
RNA: GGGUUAGAUAGAGUUAAAAACCC
modifications: 2'-F U and C; 2'-OMe 1-3,7,8,10,13,16-20; 5' peptide 1 (Phe-Cys, disulfide); 3' idT
Consider B2, for which the IC50 worked out at 35 nM with chymase [2] and 591 nM in the data set with chymase [6].

B3: 72(6) (mixed)
mixed: GGGTTAGAUAGAGTUAAAAACCC
modifications: 2'-F U; 2'-OMe 1-3,7,8,10,13,16,17,19,20; DNA T4,T5,T14,A18,C21-C23; 5' and 3' idT
Consider B3, for which the half-inhibitory concentration (IC50) with chymase [7] was 573 nM; with chymase [2], 41 nM.

In the case of GGGUUAGAUAGAGTUAAAAACCC (mixed, 2'-F U and C; 2'-OMe 1-3,7,8,10,13,16-20; DNA T14; 5' and 3' idT) [SEQ 71], in the data set with chymase [8], the IC50 turned out to be 341 nM.

With GGGUUAGAUAGAGUUAAAAACCC (ssRNA, 2'-F U and C; 2'-OMe 1-3,7,8,10,13,16-20; 5' and 3' idT) [56(46)], the IC50 with chymase [9] came to 742 nM; with chymase [2] (label: 5' biotin) it was 49 nM.

Consider GGGUUAGAUAGAGUUAAAAACCC (ssRNA, 2'-F U and C; 2'-OMe 1-3,7,8,10,13,16-20; 5' idT; 3' PEG 40 kDa) [56(45)], for which the 50% inhibitory concentration (IC50) turned out to be 303 nM with chymase [10] and 59 nM in the data set with chymase [2].

For GGGTTAGAUAGAGUUAAAAACCC (mixed, 2'-F U and C; 2'-OMe 1-3,7,8,10,13,16-20; DNA T4,T5; 5' and 3' idT) [SEQ 70], in the data set with chymase [11], the IC50 worked out at 478 nM.

As to GGGUUAGAUAGAGUUAAAAACCC (ssRNA, 2'-F U and C; 2'-OMe 1-3,7,8,10,13,16-20; 5' cholesterol; 3' idT) [56(42)], the IC50 turned out to be 601 nM with chymase [12] and 71 nM in the data set with chymase [2].

Turning to AAAGGGUUAGAUAGAGUUAAAAACCC (ssRNA, 2'-F U and C; 2'-OMe 1-6,10,11,13,16,19-23; PS 9-10; 5' and 3' idT) [69(1)], the half-maximal inhibitory concentration (IC50) with chymase [2] came to 44 nM; with chymase [13], 480 nM.

B4: 56(44) (ssRNA)
RNA: GGGUUAGAUAGAGUUAAAAACCC
modifications: 2'-F U and C; 2'-OMe 1-3,7,8,10,13,16-20; 5' peptide 2 (Cys-Phe, disulfide); 3' idT
In the case of B4, the 50% inhibitory concentration (IC50) with chymase [14] worked out at 643 nM; with chymase [2], 42 nM.

For GGGUUAGAUAGAGUUAAAAACCC (ssRNA, 2'-F U and C; 2'-OMe 1-3,10,13,16-20; PS 6-7; 5' and 3' idT) [56(35)], the IC50 in the data set with chymase [15] was 120 nM; with chymase [2], 24 nM.

Consider GGGTTAGAUAGAGTUAAAAACCC (mixed, 2'-F U; 2'-OMe 1-3,7,10,13,16-20; DNA T4,T5,A8,T14,C21-C23; 5' and 3' idT) [72(1)], for which, in the data set with chymase [16], the IC50 was found to be 103 nM.

For the molecule GGGTTAGAUAGAGTUAAAAACCC (mixed, 2'-F U; 2'-OMe 1-3,7,8,10,13,16-20; DNA T4,T5,T14,C21-C23; 5' and 3' idT) [SEQ 72], the IC50 with chymase [17] amounted to 120 nM.

Take AAAGGGUUAGAUAGAGUUAAAAACCC (ssRNA, 2'-F U and C; 2'-OMe 1-6,10,11,13,16,19-23; 5' and 3' idT) [69(2)]: the half-maximal inhibitory concentration (IC50) came to 48 nM in the data set with chymase [2] and 752 nM with chymase [18].

In the case of GGGTTAGAUAGAGTUAAAAACCC (mixed, 2'-F U; 2'-OMe 1-3,7,8,10,13,16,18-20; DNA T4,T5,T14,A17,C21-C23; 5' and 3' idT) [72(5)], the figures for the IC50 with chymase [19] and with chymase [2] were 377 nM and 27 nM, respectively.

For GGGUUAGAUAGAGUUAAAAACCC (ssRNA, 2'-F U and C; 2'-OMe 1-3,7,8,10,13,16-20; 5' and 3' idT) [56(47)], the 50% inhibitory concentration (IC50) with chymase [20] was found to be 542 nM; with chymase [2] (label: 3' biotin), 37 nM.

Turning to GGGUUAGAUAGAGUUAAAAACCC (mixed, 2'-F U and C; 2'-OMe 1-3,7,10,13,16-20; DNA A8; 5' and 3' idT) [56(51)], the IC50 in the data set with chymase [2] (label: 5' biotin) is 29 nM; in the data set with chymase [21] it was 429 nM.
